Source: publication PMC10397247
Blank lines part the entries; values can stand above or below the binder they belong to.

What was measured:
4H3070-bH = target: T1, 4H3070-bH; experiment: two-hybrid library CCNG1;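 also: natural log of median RNA to DNA barcode read ratio; higher means stronger binding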
T1 chain: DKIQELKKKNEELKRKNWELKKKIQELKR

4H496-bH = target: T2, 4H496-bH; experiment: two-hybrid library CCNG1;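 also: natural log of median RNA to DNA barcode read ratio; higher means stronger binding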
T2 chain: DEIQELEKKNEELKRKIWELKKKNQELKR

4H3632-bH = target: T3, 4H3632-bH; experiment: two-hybrid library CCNG1;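 also: natural log of median RNA to DNA barcode read ratio; higher means stronger binding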
T3 chain: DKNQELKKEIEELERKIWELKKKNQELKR

4H2691-bH = target: T4, 4H2691-bH; experiment: two-hybrid library CCNG1;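 also: natural log of median RNA to DNA barcode read ratio; higher means stronger binding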
T4 chain: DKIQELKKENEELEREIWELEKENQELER

4H342-bH = target: T5, 4H342-bH; experiment: two-hybrid library CCNG1;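 also: natural log of median RNA to DNA barcode read ratio; higher means stronger binding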
T5 chain: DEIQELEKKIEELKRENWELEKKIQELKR

4H918-bN = target: T6, 4H918-bN; experiment: two-hybrid library CCNG1;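 also: natural log of median RNA to DNA barcode read ratio; higher means stronger binding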
T6 chain: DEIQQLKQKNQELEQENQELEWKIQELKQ

4H953-bN = target: T7, 4H953-bN; experiment: two-hybrid library CCNG1
T7 chain: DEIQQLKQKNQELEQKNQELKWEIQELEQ

4H968-bN = target: T8, 4H968-bN; experiment: two-hybrid library CCNG1
T8 chain: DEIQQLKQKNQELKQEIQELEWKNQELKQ

4H855-bN = target: T9, 4H855-bN; experiment: two-hybrid library CCNG1
T9 chain: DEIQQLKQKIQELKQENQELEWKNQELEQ

P1A-bN = target: T10, P1A-bN; experiment: two-hybrid library CCNG1
T10 chain: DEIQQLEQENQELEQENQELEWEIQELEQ

4H754-bA = target: T11, 4H754-bA; experiment: two-hybrid library CCNG1
T11 chain: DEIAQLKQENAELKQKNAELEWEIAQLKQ

4H3010-bA = target: T12, 4H3010-bA; experiment: two-hybrid library CCNG1
T12 chain: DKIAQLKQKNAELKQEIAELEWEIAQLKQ

4H170-bA = target: T13, 4H170-bA; experiment: two-hybrid library CCNG1
T13 chain: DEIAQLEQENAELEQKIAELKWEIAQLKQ

4H3427-bA = target: T14, 4H3427-bA; experiment: two-hybrid library CCNG1
T14 chain: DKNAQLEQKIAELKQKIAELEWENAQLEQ

4H918-bA = target: T15, 4H918-bA; experiment: two-hybrid library CCNG1
T15 chain: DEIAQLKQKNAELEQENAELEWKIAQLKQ

4H683-bA = target: T16, 4H683-bA; experiment: two-hybrid library CCNG1
T16 chain: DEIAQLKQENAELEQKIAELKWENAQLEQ

4H118-bA = target: T17, 4H118-bA; experiment: two-hybrid library CCNG1
T17 chain: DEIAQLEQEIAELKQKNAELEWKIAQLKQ

4H1831-bA = target: T18, 4H1831-bA; experiment: two-hybrid library CCNG1
T18 chain: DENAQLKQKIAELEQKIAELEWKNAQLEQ

4H3112-bA = target: T19, 4H3112-bA; experiment: two-hybrid library CCNG1
T19 chain: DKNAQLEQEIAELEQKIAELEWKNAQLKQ

4H855-bA = target: T20, 4H855-bA; experiment: two-hybrid library CCNG1
T20 chain: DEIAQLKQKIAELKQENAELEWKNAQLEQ

4H780-bA = target: T21, 4H780-bA; experiment: two-hybrid library CCNG1
T21 chain: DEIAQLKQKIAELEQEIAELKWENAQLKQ

4H4073-bA = target: T22, 4H4073-bA; experiment: two-hybrid library CCNG1
T22 chain: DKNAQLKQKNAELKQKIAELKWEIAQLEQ

4H2673-bA = target: T23, 4H2673-bA; experiment: two-hybrid library CCNG1
T23 chain: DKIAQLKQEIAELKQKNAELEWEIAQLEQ

4H2702-bA = target: T24, 4H2702-bA; experiment: two-hybrid library CCNG1
T24 chain: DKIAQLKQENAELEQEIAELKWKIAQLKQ

4H346-bA = target: T25, 4H346-bA; experiment: two-hybrid library CCNG1
T25 chain: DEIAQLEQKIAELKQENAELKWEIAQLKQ

4H968-bA = target: T26, 4H968-bA; experiment: two-hybrid library CCNG1
T26 chain: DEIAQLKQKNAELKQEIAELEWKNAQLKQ

4H575-bA = target: T27, 4H575-bA; experiment: two-hybrid library CCNG1
T27 chain: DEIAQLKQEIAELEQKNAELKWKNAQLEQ

4H797-bA = target: T28, 4H797-bA; experiment: two-hybrid library CCNG1
T28 chain: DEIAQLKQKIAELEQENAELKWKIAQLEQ

4H2627-bA = target: T29, 4H2627-bA; experiment: two-hybrid library CCNG1
T29 chain: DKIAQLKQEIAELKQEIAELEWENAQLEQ

4H2586-bA = target: T30, 4H2586-bA; experiment: two-hybrid library CCNG1
T30 chain: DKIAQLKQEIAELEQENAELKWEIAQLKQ

4H953-bA = target: T31, 4H953-bA; experiment: two-hybrid library CCNG1
T31 chain: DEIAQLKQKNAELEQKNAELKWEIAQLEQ

4H457-bA = target: T32, 4H457-bA; experiment: two-hybrid library CCNG1
T32 chain: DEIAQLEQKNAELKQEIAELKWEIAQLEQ

4H3926-bA = target: T33, 4H3926-bA; experiment: two-hybrid library CCNG1
T33 chain: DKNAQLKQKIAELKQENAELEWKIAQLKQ

O3-bP = target: T34, O3-bP; experiment: two-hybrid library CCNG1
T34 chain: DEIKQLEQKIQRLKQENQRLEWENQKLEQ

4H344-bH = target: T35, 4H344-bH; experiment: two-hybrid library CCNG1
T35 chain: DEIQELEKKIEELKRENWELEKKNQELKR

4H2745-bH = target: T36, 4H2745-bH; experiment: two-hybrid library CCNG1
T36 chain: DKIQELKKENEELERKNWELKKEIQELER

4H363-bH = target: T37, 4H363-bH; experiment: two-hybrid library CCNG1
T37 chain: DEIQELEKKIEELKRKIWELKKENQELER

4H2717-bA = target: T38, 4H2717-bA; experiment: two-hybrid library CCNG1
T38 chain: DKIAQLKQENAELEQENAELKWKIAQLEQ

4H2619-bH = target: T39, 4H2619-bH; experiment: two-hybrid library CCNG1
T39 chain: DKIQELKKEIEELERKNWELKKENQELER

4H470-bH = target: T40, 4H470-bH; experiment: two-hybrid library CCNG1
T40 chain: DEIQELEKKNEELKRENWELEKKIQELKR

4H3961-bH = target: T41, 4H3961-bH; experiment: two-hybrid library CCNG1
T41 chain: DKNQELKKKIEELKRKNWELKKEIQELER

4H3907-bH = target: T42, 4H3907-bH; experiment: two-hybrid library CCNG1
T42 chain: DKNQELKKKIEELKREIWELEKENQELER

4H55-AA = target: T43, 4H55-AA; experiment: two-hybrid library CCmax
T43 chain: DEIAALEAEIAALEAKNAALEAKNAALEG

4H3605-AA = target: T44, 4H3605-AA; experiment: two-hybrid library CCmax; settings: mean of both orientations
T44 chain: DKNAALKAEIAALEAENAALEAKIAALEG

4H4033-AA = target: T45, 4H4033-AA; experiment: two-hybrid library CCmax; settings: mean of both orientations
T45 chain: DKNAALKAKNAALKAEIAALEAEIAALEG

4H2935-AA = target: T46, 4H2935-AA; experiment: two-hybrid library CCmax; settings: mean of both orientations
T46 chain: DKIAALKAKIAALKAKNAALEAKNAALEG

4H2513-AA = target: T47, 4H2513-AA; experiment: two-hybrid library CCmax; settings: mean of both orientations
T47 chain: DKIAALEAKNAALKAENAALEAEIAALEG

4H662-AA = target: T48, 4H662-AA; experiment: two-hybrid library CCmax; settings: mean of both orientations
T48 chain: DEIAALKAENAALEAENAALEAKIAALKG

4H2726-AA = target: T49, 4H2726-AA; experiment: two-hybrid library CCmax; settings: mean of both orientations
T49 chain: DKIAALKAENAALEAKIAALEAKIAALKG

4H2614-AA = target: T50, 4H2614-AA; experiment: two-hybrid library CCmax; settings: mean of both orientations
T50 chain: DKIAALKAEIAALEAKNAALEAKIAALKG

4H175-AA = target: T51, 4H175-AA; experiment: two-hybrid library CCmax
T51 chain: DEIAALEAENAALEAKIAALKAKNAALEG

4H2608-AA = target: T52, 4H2608-AA; experiment: two-hybrid library CCmax; settings: mean of both orientations
T52 chain: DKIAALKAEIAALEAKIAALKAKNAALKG

4H2238-AA = target: T53, 4H2238-AA; experiment: two-hybrid library CCmax; settings: mean of both orientations
T53 chain: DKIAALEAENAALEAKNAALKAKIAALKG

4H3922-AA = target: T54, 4H3922-AA; experiment: two-hybrid library CCmax; settings: mean of both orientations
T54 chain: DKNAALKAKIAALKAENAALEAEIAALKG

4H327-AA = target: T55, 4H327-AA; experiment: two-hybrid library CCmax; settings: mean of both orientations
T55 chain: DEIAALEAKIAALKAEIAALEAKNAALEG

4H369-AA = target: T56, 4H369-AA; experiment: two-hybrid library CCmax; settings: mean of both orientations
T56 chain: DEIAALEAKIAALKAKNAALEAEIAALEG

4H481-AA = target: T57, 4H481-AA; experiment: two-hybrid library CCmax; settings: mean of both orientations
T57 chain: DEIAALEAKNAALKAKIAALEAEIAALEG

4H2211-AA = target: T58, 4H2211-AA; experiment: two-hybrid library CCmax; settings: mean of both orientations
T58 chain: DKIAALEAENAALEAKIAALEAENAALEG

4H2536-AA = target: T59, 4H2536-AA; experiment: two-hybrid library CCmax; settings: mean of both orientations
T59 chain: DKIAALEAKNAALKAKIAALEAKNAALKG

4H3625-AA = target: T60, 4H3625-AA; experiment: two-hybrid library CCmax; settings: mean of both orientations
T60 chain: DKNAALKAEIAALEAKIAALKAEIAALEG

4H1405-AA = target: T61, 4H1405-AA; experiment: two-hybrid library CCmax
T61 chain: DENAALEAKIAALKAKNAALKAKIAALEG

4H3664-AA = target: T62, 4H3664-AA; experiment: two-hybrid library CCmax; settings: mean of both orientations
T62 chain: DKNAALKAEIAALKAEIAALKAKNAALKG

Binder: DEIQQLKQKIQELKQENQELEWKNQELEQ [4H855-bN]
interaction score (4H918-bN): -0.862 | interaction score (4H953-bN): -0.67 | interaction score (4H968-bN): -1.39 | interaction score (4H855-bN): -0.495 | interaction score (P1A-bN): -0.584

Binder: DEIAQLEQEIAELKQKNAELEWKIAQLKQ [4H118-bA]
interaction score (4H754-bA): -1.04 | interaction score (4H3010-bA): 2.66 | interaction score (4H170-bA): -0.0431 | interaction score (4H3427-bA): 0.236 | interaction score (4H918-bA): -0.49 | interaction score (4H683-bA): -0.721 | interaction score (4H118-bA): 1.64 | interaction score (4H1831-bA): -0.644 | interaction score (4H3112-bA): 0.131 | interaction score (4H855-bA): 0.403 | interaction score (4H780-bA): 0.087 | interaction score (4H4073-bA): -0.156 | interaction score (4H2673-bA): 1.32 | interaction score (4H2702-bA): 0.439 | interaction score (4H346-bA): -0.612 | interaction score (4H968-bA): 0.0453 | interaction score (4H575-bA): 0.369 | interaction score (4H797-bA): -1.22 | interaction score (4H2627-bA): 0.852 | interaction score (4H2586-bA): 0.381 | interaction score (4H953-bA): -0.791 | interaction score (4H457-bA): -0.384 | interaction score (4H3926-bA): 1.96 | interaction score (O3-bP): -1.86

Further lines, results first:

interaction score (4H3070-bH): 0.576 | interaction score (4H496-bH): 1.3 | interaction score (4H3632-bH): -1.39 | interaction score (4H2691-bH): -0.0571 | interaction score (4H342-bH): -1.06
Binder: DKIQELKKENEELEREIWELEKENQELER [4H2691-bH]

interaction score (4H344-bH): 1.68 | interaction score (4H3070-bH): -0.416 | interaction score (4H496-bH): -0.548 | interaction score (4H2745-bH): 0.382 | interaction score (4H363-bH): 0.722 | interaction score (4H2717-bA): -0.495 | interaction score (4H2619-bH): 0.248 | interaction score (4H3632-bH): -0.755 | interaction score (4H470-bH): 0.724 | interaction score (4H3961-bH): -0.9 | interaction score (4H2691-bH): 0.304 | interaction score (4H3907-bH): 0.518 | interaction score (4H342-bH): 1.45
Binder: DKIQELKKEIEELERKNWELKKENQELER [4H2619-bH]

interaction score (4H55-AA): -1.42 | interaction score (4H3605-AA): 2.26 | interaction score (4H4033-AA): -0.407 | interaction score (4H2935-AA): -1.84 | interaction score (4H2513-AA): -1.52 | interaction score (4H662-AA): 0.709 | interaction score (4H2726-AA): 0.87 | interaction score (4H2614-AA): 1.52 | interaction score (4H175-AA): 1.87 | interaction score (4H2608-AA): -0.735 | interaction score (4H2238-AA): -1.22 | interaction score (4H3922-AA): 0.997 | interaction score (4H327-AA): -1.19 | interaction score (4H369-AA): -0.585 | interaction score (4H481-AA): -0.893 | interaction score (4H2211-AA): 1.88 | interaction score (4H2536-AA): -1.01 | interaction score (4H3625-AA): -1.11 | interaction score (4H1405-AA): -1.08 | interaction score (4H3664-AA): -1.67
Binder: DENAALEAKIAALKAKNAALKAKIAALEG [4H1405-AA]
